Drawing on patent publication US20180237497A1 (CANCER RESEARCH TECHNOLOGY, published 2018), this text covers Kd, koff and kon for 16 molecules.

By Kd is commonly meant a measure of binding affinity in units of concentration. A lower Kd goes with higher affinity. The term koff denotes a measure of how fast the partners let go of each other. Read a low koff as a long-lived complex. What is called kon is the second-order rate constant of association. A higher kon goes with faster complex formation.

Assay [1] concerns the target T1, human IGF2^1-67 (mature insulin-like growth factor 2) (human, UniProt P01344 25-91, biotinylated (site not stated) where immobilised on the chip (Tables 1-4)).
T1 construct: mature; also called mature IGF2; biotinylated IGF2
Kind of assay: SPR kinetic, biotin-IGF2 on chip, pH 7.4. An excerpt:
(§1) Surface plasmon resonance (SPR) binding analysis of recombinant M6P/IGF2R domain 11 mutants interaction with IGF2. Kon indicates association (on) rate; koff, dissociation (off) rate; RU, response units. Binding to IGF2 assessed with BIAcore T200 using purified biotinylated IGF2 and IGF1 on a streptavidin biosensor chip. Recombinant proteins were expressed either in E. coli and/or P. pastoris. All the mutants in the FG and CD loops are on the domain 11^AB5 background for the AB loop unless otherwise stated. All experiments were carried out at 25° C. in HBS-EP buffer (pH 7.4), were repeated 2-5 times on two independent BIAcore chips. nd=not determined. Data for KD expressed as mean of each experiment, and means of kon and koff are shown.
(§2) Final kinetic analysis of mutants by SPR was conducted using a Biacore T200 biosensor at 25° C. in either HBS-EP (10 mM HEPES pH 7.4, 150 mM NaCl, 3 mM EDTA, and 0.005% (v/v) surfactant P20) or MES-EP (20 mM MES pH 6.5, 150 mM NaCl, 3 mM EDTA, and 0.005% (v/v) surfactant P20) at a flow-rate of 40 μL min⁻¹. […] For the analysis of the Fc-domain 11^AB5 interaction, approximately 50 RU of a biotinylated IGF2:biotinylated ubiquitin mixture (1:8 proportion) was immobilized on the CM5-streptavidin chip. This interaction was also analysed by immobilizing the Fc-domain 11^AB5 and Fc-domain 11^AB5-RHH (or Fc-domain 11^I1572A as control) by Human Antibody Capture (monoclonal mouse anti-human IgG antibody immobilised on a CM5 chip by amine coupling, GE Healthcare) with and without human IgG1 Fc fragment (Bethyl Laboratories, UK) in the control flow cell. […] T200 BiaEvaluation software (GE Healthcare) was used to fit the resulting curves according to a 1:1 binding model. Steady state affinities were determined using the kinetic data, taking the response average at 5 seconds before injection end and for 5 seconds average.
Background: Surface plasmon resonance follows binding to a sensor surface in real time, without labels.

Assay [2] concerns the target T1, human IGF2^1-67 (mature insulin-like …). The experiment in a line: SPR steady state, biotin-IGF2 on chip, pH 7.4.
Source text: as §1, §2

Bounds are passed on as bounds.

T1 sequence (P01344 25-91): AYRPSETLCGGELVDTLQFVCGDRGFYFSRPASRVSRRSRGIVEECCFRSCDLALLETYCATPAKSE

B1: domain 11^AB5 G1603A (receptor)
chain: MKSNEHDDCQVTNPSTGHLFDLSSLSGRAGFTAAYAKGWGVYMSICGENENCPPGVGACFGQTRISVGKANKRLRYVDQVLQLVYKDGSPCPSKSALSYKSVISFVCRPEAGPTNRPMLISLDKQTCTLFFSWHTPLACEQATECSV
notes: See m5
Regarding B1, in assay [1], the Kd came to 8.69 nM, the off-rate (koff) was 0.0183 s⁻¹ and the kon came to 2.14e+06 M⁻¹ s⁻¹. In assay [2], this molecule came in with a Kd of 12.1 nM.

B2: domain 11^AB5 K1631A (receptor)
chain: MKSNEHDDCQVTNPSTGHLFDLSSLSGRAGFTAAYAKGWGVYMSICGENENCPPGVGACFGQTRISVGKANKRLRYVDQVLQLVYKDGSPCPSKSGLSYKSVISFVCRPEAGPTNRPMLISLDAQTCTLFFSWHTPLACEQATECSV
notes: See m5; HI loop mutant
Turning to B2, the Kd in assay [1] and in assay [2] was greater than 200 nM each time.

B3: domain 11^AB5 Q1632L (receptor)
chain: MKSNEHDDCQVTNPSTGHLFDLSSLSGRAGFTAAYAKGWGVYMSICGENENCPPGVGACFGQTRISVGKANKRLRYVDQVLQLVYKDGSPCPSKSGLSYKSVISFVCRPEAGPTNRPMLISLDKLTCTLFFSWHTPLACEQATECSV
notes: See m5; HI loop mutant
B3: in assay [1], the Kd came out at 5.75 nM, the koff is 0.0175 s⁻¹ and the kon was found to be 3.18e+06 M⁻¹ s⁻¹. The Kd in assay [2] came to 9.34 nM.

B4: domain 11^AB5 K1631E (receptor)
chain: MKSNEHDDCQVTNPSTGHLFDLSSLSGRAGFTAAYAKGWGVYMSICGENENCPPGVGACFGQTRISVGKANKRLRYVDQVLQLVYKDGSPCPSKSGLSYKSVISFVCRPEAGPTNRPMLISLDEQTCTLFFSWHTPLACEQATECSV
notes: See m5; HI loop mutant
In assay [1], B4 registered a Kd greater than 100 nM and a koff greater than 0.1 s⁻¹. Besides, the Kd in assay [2] is greater than 100 nM.

B5: domain 11^AB5 K1631R (receptor)
chain: MKSNEHDDCQVTNPSTGHLFDLSSLSGRAGFTAAYAKGWGVYMSICGENENCPPGVGACFGQTRISVGKANKRLRYVDQVLQLVYKDGSPCPSKSGLSYKSVISFVCRPEAGPTNRPMLISLDRQTCTLFFSWHTPLACEQATECSV
notes: See m5; HI loop mutant
In assay [1], B5 gave a Kd of 12.3 nM, a koff of 0.0867 s⁻¹ and an on-rate (kon) of 7.18e+06 M⁻¹ s⁻¹. Besides, the Kd in assay [2] is 13.5 nM.

B6: domain 11^AB5 S1600L (receptor)
chain: MKSNEHDDCQVTNPSTGHLFDLSSLSGRAGFTAAYAKGWGVYMSICGENENCPPGVGACFGQTRISVGKANKRLRYVDQVLQLVYKDGSPCPLKSGLSYKSVISFVCRPEAGPTNRPMLISLDKQTCTLFFSWHTPLACEQATECSV
notes: See m5
Turning to B6, in assay [1], the Kd was greater than 200 nM and the koff was greater than 0.2 s⁻¹. In assay [2], this molecule yielded an equilibrium dissociation constant (Kd) greater than 200 nM.

B7: domain 11^AB5 P1599G (receptor)
chain: MKSNEHDDCQVTNPSTGHLFDLSSLSGRAGFTAAYAKGWGVYMSICGENENCPPGVGACFGQTRISVGKANKRLRYVDQVLQLVYKDGSPCGSKSGLSYKSVISFVCRPEAGPTNRPMLISLDKQTCTLFFSWHTPLACEQATECSV
notes: See m5; the asterisk is not explained
In the case of B7, the Kd in assay [1] and in assay [2] was greater than 200 nM in each case. Besides, in assay [1], the koff is greater than 0.2 s⁻¹.

B8: domain 11^AB5 S1600A (receptor)
chain: MKSNEHDDCQVTNPSTGHLFDLSSLSGRAGFTAAYAKGWGVYMSICGENENCPPGVGACFGQTRISVGKANKRLRYVDQVLQLVYKDGSPCPAKSGLSYKSVISFVCRPEAGPTNRPMLISLDKQTCTLFFSWHTPLACEQATECSV
notes: See m5
As to B8, in assay [1], the Kd is 89.1 nM, the koff amounted to 0.213 s⁻¹ and the kon is 2.39e+06 M⁻¹ s⁻¹. In assay [2], this molecule showed a Kd of 84.7 nM.

B9: domain 11^AB5 P1599V (receptor)
chain: MKSNEHDDCQVTNPSTGHLFDLSSLSGRAGFTAAYAKGWGVYMSICGENENCPPGVGACFGQTRISVGKANKRLRYVDQVLQLVYKDGSPCVSKSGLSYKSVISFVCRPEAGPTNRPMLISLDKQTCTLFFSWHTPLACEQATECSV
notes: as for B7
In assay [1], B9 returned a Kd greater than 100 nM and a koff greater than 0.1 s⁻¹. In assay [2], this molecule displayed a Kd greater than 100 nM.

B10: domain 11^AB5 K1601A (receptor)
chain: MKSNEHDDCQVTNPSTGHLFDLSSLSGRAGFTAAYAKGWGVYMSICGENENCPPGVGACFGQTRISVGKANKRLRYVDQVLQLVYKDGSPCPSASGLSYKSVISFVCRPEAGPTNRPMLISLDKQTCTLFFSWHTPLACEQATECSV
notes: See m5
On to B10, for which, in assay [1], the equilibrium dissociation constant (Kd) was determined as 6.8 nM, the koff was found to be 0.022 s⁻¹ and the kon came to 3.26e+06 M⁻¹ s⁻¹. Also, the affinity in assay [2], expressed as Kd, was 8.51 nM.

B11: domain 11^AB5 P1599A (receptor)
chain: MKSNEHDDCQVTNPSTGHLFDLSSLSGRAGFTAAYAKGWGVYMSICGENENCPPGVGACFGQTRISVGKANKRLRYVDQVLQLVYKDGSPCASKSGLSYKSVISFVCRPEAGPTNRPMLISLDKQTCTLFFSWHTPLACEQATECSV
notes: as for B7
In assay [1], B11 came in with a dissociation constant Kd greater than 70 nM and a koff greater than 0.1 s⁻¹. This molecule had a Kd in assay [2] greater than 70 nM.

B12: domain 11^AB5 Q1632E (receptor)
chain: MKSNEHDDCQVTNPSTGHLFDLSSLSGRAGFTAAYAKGWGVYMSICGENENCPPGVGACFGQTRISVGKANKRLRYVDQVLQLVYKDGSPCPSKSGLSYKSVISFVCRPEAGPTNRPMLISLDKETCTLFFSWHTPLACEQATECSV
notes: See m5; HI loop mutant
Take B12: in assay [1], binding was characterised by a dissociation constant (Kd) of 39.8 nM, the koff was 0.0202 s⁻¹ and the kon is 520000 M⁻¹ s⁻¹. The molecule further yielded a Kd in assay [2] of 52.4 nM.

B13: domain 11^AB5 K1631W (receptor)
chain: MKSNEHDDCQVTNPSTGHLFDLSSLSGRAGFTAAYAKGWGVYMSICGENENCPPGVGACFGQTRISVGKANKRLRYVDQVLQLVYKDGSPCPSKSGLSYKSVISFVCRPEAGPTNRPMLISLDWQTCTLFFSWHTPLACEQATECSV
notes: See m5; HI loop mutant
In the case of B13, in assay [1], binding was put at a Kd of 2.94 nM, the off-rate constant (koff) stood at 0.0034 s⁻¹ and the kon was 1.18e+06 M⁻¹ s⁻¹. Besides, in assay [2], the Kd was determined as 12.2 nM.

B14: domain 11^AB5 Q1632A (receptor)
chain: MKSNEHDDCQVTNPSTGHLFDLSSLSGRAGFTAAYAKGWGVYMSICGENENCPPGVGACFGQTRISVGKANKRLRYVDQVLQLVYKDGSPCPSKSGLSYKSVISFVCRPEAGPTNRPMLISLDKATCTLFFSWHTPLACEQATECSV
notes: See m5; HI loop mutant
In assay [1], B14 showed a Kd of 3.76 nM, a koff of 0.0167 s⁻¹ and a kon of 4.5e+06 M⁻¹ s⁻¹. In addition, in assay [2], the Kd turned out to be 4.84 nM.

B15: domain 11^AB5 Q1632K (receptor)
chain: MKSNEHDDCQVTNPSTGHLFDLSSLSGRAGFTAAYAKGWGVYMSICGENENCPPGVGACFGQTRISVGKANKRLRYVDQVLQLVYKDGSPCPSKSGLSYKSVISFVCRPEAGPTNRPMLISLDKKTCTLFFSWHTPLACEQATECSV
notes: See m5; HI loop mutant
For B15, in assay [1], binding was characterised by a dissociation constant (Kd) of 11.1 nM, the koff is 0.0212 s⁻¹ and the kon was 1.96e+06 M⁻¹ s⁻¹. Binding in assay [2] was put at a Kd of 12.8 nM.

B16: domain 11^AB5 L1604A (receptor)
chain: MKSNEHDDCQVTNPSTGHLFDLSSLSGRAGFTAAYAKGWGVYMSICGENENCPPGVGACFGQTRISVGKANKRLRYVDQVLQLVYKDGSPCPSKSGASYKSVISFVCRPEAGPTNRPMLISLDKQTCTLFFSWHTPLACEQATECSV
notes: See m5
Regarding B16, in assay [1], the affinity, expressed as Kd, was 48.3 nM; the off-rate (koff) was 0.0397 s⁻¹; the kon was determined as 790000 M⁻¹ s⁻¹. This molecule came in with a Kd in assay [2] of 60 nM.
